Here are results for one molecule from article PMC8326427.

The target in the data set is T1, rDHX36 (G4R1/RHAU) (UniProt Q9H2U1 1-1008).
T1 sequence: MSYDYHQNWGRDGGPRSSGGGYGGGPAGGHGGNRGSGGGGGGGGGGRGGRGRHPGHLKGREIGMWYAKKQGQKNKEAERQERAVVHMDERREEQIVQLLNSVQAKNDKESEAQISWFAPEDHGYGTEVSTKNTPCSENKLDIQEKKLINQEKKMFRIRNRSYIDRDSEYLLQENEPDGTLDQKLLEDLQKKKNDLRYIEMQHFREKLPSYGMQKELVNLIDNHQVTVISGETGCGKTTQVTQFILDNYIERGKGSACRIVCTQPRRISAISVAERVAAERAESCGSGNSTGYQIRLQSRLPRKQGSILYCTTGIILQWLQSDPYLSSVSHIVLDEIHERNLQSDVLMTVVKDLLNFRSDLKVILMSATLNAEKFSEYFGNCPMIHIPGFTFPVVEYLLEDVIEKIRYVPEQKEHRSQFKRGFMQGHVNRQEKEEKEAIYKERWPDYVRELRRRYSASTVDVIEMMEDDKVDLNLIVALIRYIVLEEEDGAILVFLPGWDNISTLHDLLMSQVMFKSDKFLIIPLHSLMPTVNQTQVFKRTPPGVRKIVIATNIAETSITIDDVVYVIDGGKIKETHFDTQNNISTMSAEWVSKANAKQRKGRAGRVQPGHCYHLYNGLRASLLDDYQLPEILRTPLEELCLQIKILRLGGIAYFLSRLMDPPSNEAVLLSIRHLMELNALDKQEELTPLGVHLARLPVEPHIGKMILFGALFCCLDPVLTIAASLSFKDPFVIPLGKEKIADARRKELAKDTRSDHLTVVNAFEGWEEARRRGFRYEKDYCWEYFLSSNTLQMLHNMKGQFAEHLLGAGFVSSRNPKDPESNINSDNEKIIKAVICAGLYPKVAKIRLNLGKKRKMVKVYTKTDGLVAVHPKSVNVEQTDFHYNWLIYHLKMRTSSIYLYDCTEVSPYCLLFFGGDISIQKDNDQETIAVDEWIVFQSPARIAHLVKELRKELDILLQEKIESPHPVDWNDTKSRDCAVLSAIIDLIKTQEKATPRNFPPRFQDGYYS
Briefly: EMSA. Background: Mobility shift assays separate free from complexed probe on a gel.

For the molecule GGGGCCGGGGCCGGGGCCGGGGCCGGGGCCGTTAGAATTTTT (structured_DNA) [(G4C2)5-DNA, annealed with KCl (G4)], the binding result is on record as “binds”.
